How the values were obtained:
[1] = target: T1, Clostridium difficile toxin A (TcdA) (Clostridium difficile, UniProt P16154 1-2710); test: SPR (Biacore 3000), VHH over immobilized TcdA, 1:1 fit
T1 construct: mature; also called full-length TcdA
Procedure: (§1) Before surface plasmon resonance (SPR) binding experiments, IMAC-purified VHHs were subjected to de-salting and further purification by size-exclusion chromatography (SEC). Approximately 500 μg of each VHH was injected over a Superdex 75 Increase 10/300 GL SEC column (GE Healthcare) in Biacore running buffer HBS-EP (10 mM HEPES pH 7.4, 150 mM NaCl, 3 mM EDTA, 0.005% (v/v) P20; GE Healthcare) under the control of an ÄKTA FPLC at 0.8 mL/min. Monomeric VHH fractions were collected and analyzed for binding to TcdA using a Biacore 3000 SPR instrument (GE Healthcare). Approximately 4,500 resonance units (RUs) of TcdA (List Biological Laboratories, Campbell, Calif.) were immobilized on a CM5 sensor chip (GE Healthcare) using the conditions previously described (Hussack et al, 2011). HBS-EP running buffer was used for all binding studies and regeneration of TcdA surfaces. Next, various dilution ranges of VHHs (as low as 10 nM-0.5 nM to as high as 5 μM-50 nM) were injected over immobilized TcdA at a flow rate of 40 μL/min with 120 s contact time and 600 s dissociation. Reference-subtracted sensorgrams were analyzed with BIAevaluation software (GE Healthcare) and fit to a 1:1 binding model. In cases where rapid kₒₙ and koff rate constants were observed, equilibrium dissociation constants (KDs) were determined by steady-state analysis.

[2] = target: T1, Clostridium difficile toxin A (TcdA); test: SPR (Biacore 3000), VHH over immobilized TcdA; ratio of parent KD to mutant KD
Procedure: as §1

[3] = target: T1, Clostridium difficile toxin A (TcdA); test: SPR on immobilized TcdA
Procedure: as §1
The location of these mutations relative to the antigen epitope is illustrated in FIG. 2C.

[4] = target: T1, Clostridium difficile toxin A (TcdA); test: SPR (Biacore 3000), VHH over immobilized TcdA; binding free energy difference relative to parent VHH
Procedure: as §1

T1 sequence (P16154 whole entry): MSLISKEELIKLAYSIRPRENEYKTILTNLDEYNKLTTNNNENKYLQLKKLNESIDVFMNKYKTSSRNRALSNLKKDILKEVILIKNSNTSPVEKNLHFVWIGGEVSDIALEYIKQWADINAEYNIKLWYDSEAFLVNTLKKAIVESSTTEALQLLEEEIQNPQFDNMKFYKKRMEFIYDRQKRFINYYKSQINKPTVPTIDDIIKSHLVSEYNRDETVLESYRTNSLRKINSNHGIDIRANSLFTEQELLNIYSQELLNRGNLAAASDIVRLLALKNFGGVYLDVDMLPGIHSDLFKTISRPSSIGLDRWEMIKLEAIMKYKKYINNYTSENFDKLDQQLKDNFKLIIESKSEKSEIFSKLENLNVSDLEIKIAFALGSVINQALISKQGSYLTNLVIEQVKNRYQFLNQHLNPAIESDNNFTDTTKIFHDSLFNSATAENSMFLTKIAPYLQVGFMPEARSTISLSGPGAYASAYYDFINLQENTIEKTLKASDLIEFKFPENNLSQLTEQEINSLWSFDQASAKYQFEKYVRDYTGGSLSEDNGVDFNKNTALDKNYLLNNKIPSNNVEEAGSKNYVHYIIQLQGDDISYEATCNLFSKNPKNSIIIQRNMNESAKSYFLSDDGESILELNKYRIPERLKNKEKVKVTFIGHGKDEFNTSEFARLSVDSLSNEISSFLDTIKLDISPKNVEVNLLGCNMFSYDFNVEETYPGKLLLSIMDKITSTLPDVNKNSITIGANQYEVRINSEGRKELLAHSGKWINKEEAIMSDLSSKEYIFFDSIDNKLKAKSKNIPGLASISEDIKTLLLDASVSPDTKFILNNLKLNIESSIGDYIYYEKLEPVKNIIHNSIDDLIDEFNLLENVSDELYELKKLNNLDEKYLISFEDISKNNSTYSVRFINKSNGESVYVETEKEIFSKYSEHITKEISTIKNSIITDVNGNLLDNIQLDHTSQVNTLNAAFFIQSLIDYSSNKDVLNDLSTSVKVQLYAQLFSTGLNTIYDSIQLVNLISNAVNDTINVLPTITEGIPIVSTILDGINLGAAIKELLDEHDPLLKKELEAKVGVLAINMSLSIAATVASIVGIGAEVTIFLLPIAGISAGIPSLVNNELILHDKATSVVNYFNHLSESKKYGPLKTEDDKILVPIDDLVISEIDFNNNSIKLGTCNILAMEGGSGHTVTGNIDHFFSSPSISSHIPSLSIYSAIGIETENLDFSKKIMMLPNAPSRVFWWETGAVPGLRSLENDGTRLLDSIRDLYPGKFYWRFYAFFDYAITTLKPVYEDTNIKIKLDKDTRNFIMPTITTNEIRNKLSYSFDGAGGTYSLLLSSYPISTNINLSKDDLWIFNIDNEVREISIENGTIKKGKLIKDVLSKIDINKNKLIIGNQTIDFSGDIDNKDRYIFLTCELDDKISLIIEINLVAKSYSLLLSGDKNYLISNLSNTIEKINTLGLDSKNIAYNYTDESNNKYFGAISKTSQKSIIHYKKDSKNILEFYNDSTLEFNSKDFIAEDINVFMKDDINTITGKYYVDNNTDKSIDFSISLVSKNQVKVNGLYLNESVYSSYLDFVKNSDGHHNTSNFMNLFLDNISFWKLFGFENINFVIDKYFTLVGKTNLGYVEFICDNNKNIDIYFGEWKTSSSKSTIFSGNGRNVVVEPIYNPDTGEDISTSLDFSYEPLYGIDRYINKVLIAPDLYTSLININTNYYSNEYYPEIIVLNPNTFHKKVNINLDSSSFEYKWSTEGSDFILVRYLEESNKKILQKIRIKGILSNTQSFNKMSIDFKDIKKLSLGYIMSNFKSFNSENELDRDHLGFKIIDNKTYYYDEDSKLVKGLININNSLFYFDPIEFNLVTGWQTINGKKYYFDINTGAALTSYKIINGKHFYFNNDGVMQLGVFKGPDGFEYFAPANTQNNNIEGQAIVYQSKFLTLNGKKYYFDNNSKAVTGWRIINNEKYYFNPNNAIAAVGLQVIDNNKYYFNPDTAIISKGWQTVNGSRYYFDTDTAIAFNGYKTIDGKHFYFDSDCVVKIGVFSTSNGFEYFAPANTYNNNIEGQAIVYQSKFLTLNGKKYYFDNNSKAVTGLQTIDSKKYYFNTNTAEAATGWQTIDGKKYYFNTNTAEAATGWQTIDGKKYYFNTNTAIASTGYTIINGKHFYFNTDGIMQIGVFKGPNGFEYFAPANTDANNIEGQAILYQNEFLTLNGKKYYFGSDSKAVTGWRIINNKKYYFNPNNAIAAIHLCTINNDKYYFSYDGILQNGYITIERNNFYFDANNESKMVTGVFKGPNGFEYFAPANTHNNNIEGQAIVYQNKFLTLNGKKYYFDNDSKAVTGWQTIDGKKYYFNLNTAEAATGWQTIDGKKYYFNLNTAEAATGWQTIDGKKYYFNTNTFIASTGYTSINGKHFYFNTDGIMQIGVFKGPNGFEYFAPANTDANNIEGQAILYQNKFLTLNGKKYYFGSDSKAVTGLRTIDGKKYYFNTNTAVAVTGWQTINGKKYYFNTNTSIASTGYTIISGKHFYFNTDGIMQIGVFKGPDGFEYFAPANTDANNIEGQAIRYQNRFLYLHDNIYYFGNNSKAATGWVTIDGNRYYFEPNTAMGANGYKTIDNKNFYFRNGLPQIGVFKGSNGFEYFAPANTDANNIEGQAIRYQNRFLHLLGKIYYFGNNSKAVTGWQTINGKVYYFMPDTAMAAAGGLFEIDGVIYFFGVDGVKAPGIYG

Row | Binder | Kd [1] [nM] | koff [1] [s⁻¹] | kon [1] [M⁻¹ s⁻¹] | KD^WT/KD [2] | fold decrease in affinity relative to parent A26.8 VHH [3] [fold] | ΔΔG [4] [kcal/mol]
1 | A26.8 VHH mutant D107N (VHH, not shown: small tags and cut ends) VHH: QVKLEESGGGLVQAGGSLRLSCAASERTFSRYPVAWFRQAPGAEREFVAVISSTGTSTYYADSVKGRFTISRDNAKVTVYLQMNNLKREDTAVYFCAVNSQRTRLQNPNEYDYWGQGTQVTVSS | 21.3 | 0.0402 | 1.92e+06 | 0.9 | ≤ 2.5 | 0.08
2 | A26.8-Q101K,T103R (VHH, not shown: small tags and cut ends) VHH: QVKLEESGGGLVQAGGSLRLSCAASERTFSRYPVAWFRQAPGAEREFVAVISSTGTSTYYADSVKGRFTISRDNAKVTVYLQMNNLKREDTAVYFCAVNSKRRRLQDPNEYDYWGQGTQVTVSS | 4.2 | 0.0226 | 5.45e+06 | 4.5 |  | -0.87
3 | A26.8-T56I (VHH, not shown: small tags and cut ends) VHH: QVKLEESGGGLVQAGGSLRLSCAASERTFSRYPVAWFRQAPGAEREFVAVISSTGISTYYADSVKGRFTISRDNAKVTVYLQMNNLKREDTAVYFCAVNSQRTRLQDPNEYDYWGQGTQVTVSS | 13.6 | 0.0262 | 1.94e+06 | 1.4 |  | -0.19
4 | A26.8 VHH mutant D107R (VHH, not shown: small tags and cut ends) VHH: QVKLEESGGGLVQAGGSLRLSCAASERTFSRYPVAWFRQAPGAEREFVAVISSTGTSTYYADSVKGRFTISRDNAKVTVYLQMNNLKREDTAVYFCAVNSQRTRLQRPNEYDYWGQGTQVTVSS | 19 | 0.0259 | 1.39e+06 | 1 | ≤ 2.5 | 0.01
5 | A26.8-Q101K,T103K (VHH, not shown: small tags and cut ends) VHH: QVKLEESGGGLVQAGGSLRLSCAASERTFSRYPVAWFRQAPGAEREFVAVISSTGTSTYYADSVKGRFTISRDNAKVTVYLQMNNLKREDTAVYFCAVNSKRKRLQDPNEYDYWGQGTQVTVSS | 8.21 | 0.0396 | 4.96e+06 | 2.3 |  | -0.48
6 | A26.8-T103M (VHH, not shown: small tags and cut ends) VHH: QVKLEESGGGLVQAGGSLRLSCAASERTFSRYPVAWFRQAPGAEREFVAVISSTGTSTYYADSVKGRFTISRDNAKVTVYLQMNNLKREDTAVYFCAVNSQRMRLQDPNEYDYWGQGTQVTVSS | 13.7 | 0.0237 | 1.77e+06 | 1.4 |  | -0.18
7 | A26.8-T56R, Q101K, T103M (VHH, not shown: small tags and cut ends) VHH: QVKLEESGGGLVQAGGSLRLSCAASERTFSRYPVAWFRQAPGAEREFVAVISSTGRSTYYADSVKGRFTISRDNAKVTVYLQMNNLKREDTAVYFCAVNSKRMRLQDPNEYDYWGQGTQVTVSS | 2.87 | 0.0296 | 1.04e+07 | 6.5 |  | -1.1
8 | A26.8-T56R, T103K (VHH, not shown: small tags and cut ends) VHH: QVKLEESGGGLVQAGGSLRLSCAASERTFSRYPVAWFRQAPGAEREFVAVISSTGRSTYYADSVKGRFTISRDNAKVTVYLQMNNLKREDTAVYFCAVNSQRKRLQDPNEYDYWGQGTQVTVSS | 3.44 | 0.0291 | 8.61e+06 | 5.4 |  | -0.99
9 | A26.8 VHH mutant T54Y (VHH, not shown: small tags and cut ends) VHH: QVKLEESGGGLVQAGGSLRLSCAASERTFSRYPVAWFRQAPGAEREFVAVISSYGTSTYYADSVKGRFTISRDNAKVTVYLQMNNLKREDTAVYFCAVNSQRTRLQDPNEYDYWGQGTQVTVSS | 38.9 | 0.0694 | 1.81e+06 | 0.5 |  | 0.43
10 | A26.8 VHH mutant T54W (VHH, not shown: small tags and cut ends) VHH: QVKLEESGGGLVQAGGSLRLSCAASERTFSRYPVAWFRQAPGAEREFVAVISSWGTSTYYADSVKGRFTISRDNAKVTVYLQMNNLKREDTAVYFCAVNSQRTRLQDPNEYDYWGQGTQVTVSS | 35 | 0.0561 | 1.61e+06 | 0.5 |  | 0.37
11 | A26.8-N109R (VHH, not shown: small tags and cut ends) VHH: QVKLEESGGGLVQAGGSLRLSCAASERTFSRYPVAWFRQAPGAEREFVAVISSTGTSTYYADSVKGRFTISRDNAKVTVYLQMNNLKREDTAVYFCAVNSQRTRLQDPREYDYWGQGTQVTVSS | 13.9 | 0.0268 | 1.95e+06 | 1.3 |  | -0.17
12 | A26.8 VHH mutant D107Y (VHH, not shown: small tags and cut ends) VHH: QVKLEESGGGLVQAGGSLRLSCAASERTFSRYPVAWFRQAPGAEREFVAVISSTGTSTYYADSVKGRFTISRDNAKVTVYLQMNNLKREDTAVYFCAVNSQRTRLQYPNEYDYWGQGTQVTVSS | 44 | 0.0711 | 1.62e+06 | 0.4 | ≤ 2.5 | 0.5
13 | A26.8-T58K (VHH, not shown: small tags and cut ends) VHH: QVKLEESGGGLVQAGGSLRLSCAASERTFSRYPVAWFRQAPGAEREFVAVISSTGTSKYYADSVKGRFTISRDNAKVTVYLQMNNLKREDTAVYFCAVNSQRTRLQDPNEYDYWGQGTQVTVSS | 13.5 | 0.0327 | 2.47e+06 | 1.4 |  | -0.19
14 | A26.8 VHH mutant E110Q (VHH, not shown: small tags and cut ends) VHH: QVKLEESGGGLVQAGGSLRLSCAASERTFSRYPVAWFRQAPGAEREFVAVISSTGTSTYYADSVKGRFTISRDNAKVTVYLQMNNLKREDTAVYFCAVNSQRTRLQDPNQYDYWGQGTQVTVSS | 33.6 | 0.0699 | 2.08e+06 | 0.6 | ≤ 2.5 | 0.34
15 | A26.8-T56R, Q101K, T103K (VHH, not shown: small tags and cut ends) VHH: QVKLEESGGGLVQAGGSLRLSCAASERTFSRYPVAWFRQAPGAEREFVAVISSTGRSTYYADSVKGRFTISRDNAKVTVYLQMNNLKREDTAVYFCAVNSKRKRLQDPNEYDYWGQGTQVTVSS | 3.19 | 0.0467 | 1.47e+07 | 5.9 |  | -1.03
16 | A26.8-T54R (VHH, not shown: small tags and cut ends) VHH: QVKLEESGGGLVQAGGSLRLSCAASERTFSRYPVAWFRQAPGAEREFVAVISSRGTSTYYADSVKGRFTISRDNAKVTVYLQMNNLKREDTAVYFCAVNSQRTRLQDPNEYDYWGQGTQVTVSS | 13.2 | 0.044 | 3.55e+06 | 1.4 |  | -0.2
17 | A26.8-T103W (VHH, not shown: small tags and cut ends) VHH: QVKLEESGGGLVQAGGSLRLSCAASERTFSRYPVAWFRQAPGAEREFVAVISSTGTSTYYADSVKGRFTISRDNAKVTVYLQMNNLKREDTAVYFCAVNSQRWRLQDPNEYDYWGQGTQVTVSS | 16.3 | 0.0361 | 2.39e+06 | 1.1 |  | -0.08
18 | A26.8-T56R, Q101K (VHH, not shown: small tags and cut ends) VHH: QVKLEESGGGLVQAGGSLRLSCAASERTFSRYPVAWFRQAPGAEREFVAVISSTGRSTYYADSVKGRFTISRDNAKVTVYLQMNNLKREDTAVYFCAVNSKRTRLQDPNEYDYWGQGTQVTVSS | 4.13 | 0.0497 | 1.24e+07 | 4.5 |  | -0.88
19 | A26.8-Q101K,T103M (VHH, not shown: small tags and cut ends) VHH: QVKLEESGGGLVQAGGSLRLSCAASERTFSRYPVAWFRQAPGAEREFVAVISSTGTSTYYADSVKGRFTISRDNAKVTVYLQMNNLKREDTAVYFCAVNSKRMRLQDPNEYDYWGQGTQVTVSS | 8.02 | 0.0265 | 3.31e+06 | 2.3 |  | -0.49
20 | A26.8-T56R, T103M (VHH, not shown: small tags and cut ends) VHH: QVKLEESGGGLVQAGGSLRLSCAASERTFSRYPVAWFRQAPGAEREFVAVISSTGRSTYYADSVKGRFTISRDNAKVTVYLQMNNLKREDTAVYFCAVNSQRMRLQDPNEYDYWGQGTQVTVSS | 4.84 | 0.0304 | 6.42e+06 | 3.9 |  | -0.79
21 | A26.8 VHH mutant R104W (VHH, not shown: small tags and cut ends) VHH: QVKLEESGGGLVQAGGSLRLSCAASERTFSRYPVAWFRQAPGAEREFVAVISSTGTSTYYADSVKGRFTISRDNAKVTVYLQMNNLKREDTAVYFCAVNSQRTWLQDPNEYDYWGQGTQVTVSS | 165 | 0.0548 | 330000 | 0.1 | ~10 | 1.27

From patent publication US20210171613A1 (NATIONAL RESEARCH COUNCIL OF CANADA, published 2021)
